B6: MdnB (ATP-grasp macrocyclase, microviridin J pathway, Microcystis aeruginosa MRC) (enzyme)
chain: MKESPKVVLLLTHSGDFFTIDRVAEAIEKKGATPFRLDTDKFPLEVQLTAQFNGKKSFYQLSYNHQSIDSEQVQSVWTRRIWQPELTGDLDPQFREVCVRESQTTLAGFWDSLRSARWLDNLAQIEKAKNKLLQLRLASEVGLIIPPTLVTNNPDAAREFFSQVQGRMVSKLLTAIARSMESPEFFLYTSRVKAEDLEEAESLRYCPMVFQAEIPKQLELRVVVVNGQTFVGALESSQYNNSAVDWRRPGIDPGAWQHHTLPDSLLQQLQIFMANLGLNFGAFDFILTPGGEYVFLEVNPGGEWGMLERDLDLPISQAIADFLVFG

One data set has as its target T1, MdnC (Microcystis aeruginosa MRC, UniProt B2G3D0).
T1 sequence (B2G3D0 1-324): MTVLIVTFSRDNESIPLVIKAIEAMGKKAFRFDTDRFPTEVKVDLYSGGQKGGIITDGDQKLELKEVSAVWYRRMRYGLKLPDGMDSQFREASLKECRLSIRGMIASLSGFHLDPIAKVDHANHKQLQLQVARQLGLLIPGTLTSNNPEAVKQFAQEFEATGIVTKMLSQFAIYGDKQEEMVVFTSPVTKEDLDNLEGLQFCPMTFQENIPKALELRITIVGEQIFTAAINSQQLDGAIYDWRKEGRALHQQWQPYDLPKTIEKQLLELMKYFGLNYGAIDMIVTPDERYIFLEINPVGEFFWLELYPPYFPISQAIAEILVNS
The class given is binding. The settings on record: ITC.

The next data set concerns the target T2, MdnB (Microcystis aeruginosa MRC, UniProt B2G3C9).
T2 sequence (B2G3C9 1-326): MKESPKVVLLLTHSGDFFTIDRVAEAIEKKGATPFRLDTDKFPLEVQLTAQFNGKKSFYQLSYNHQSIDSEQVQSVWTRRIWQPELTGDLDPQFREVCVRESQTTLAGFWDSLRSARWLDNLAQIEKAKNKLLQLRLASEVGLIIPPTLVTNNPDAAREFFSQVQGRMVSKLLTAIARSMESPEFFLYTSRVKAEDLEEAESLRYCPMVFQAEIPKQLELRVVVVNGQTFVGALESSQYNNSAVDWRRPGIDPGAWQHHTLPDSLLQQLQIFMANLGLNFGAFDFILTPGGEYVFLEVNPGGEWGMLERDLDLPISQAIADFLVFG
As to the kind of experiment: ITC binding of MdnA peptides to MdnB.

The target in data set [1] is MdnC (ATP-grasp macrocyclase, microviridin J pathway, Microcystis aeruginosa MRC) (Microcystis aeruginosa MRC). Briefly: ITC.
The target is the same in data set [2]. As to the kind of experiment: SEC + native gel or EMSA.
The target of data set [3] is MdnC (Microcystis aeruginosa MRC). As to the kind of experiment: crystal structure.
Data set [4] has the same target. As to the kind of experiment: SEC.
The next data set relates to Daphnia. The settings on record: through inhibition of serine-type proteases; cited from earlier work.
Data set [5] addresses B6. As to the kind of experiment: ITC.
The data set “SEC + native gel or EMSA” deals with the molecule itself. As to the kind of experiment: SEC + native gel or EMSA.

No end group written: not given here.

With `Nc1ncnc2c1ncn2[C@@H]1O[C@H](COP(=O)(O)OP(=O)(O)OP(=O)(O)O)[C@@H](O)[C@H]1O` [ATP], the “Binding to MdnC, in words” value on MdnC was “neither MdnC nor MdnB show an observable heat change”. In addition, the “Binding to MdnB, in words” value on MdnB is “neither MdnC nor MdnB show an observable heat change”.

“Full-length MdnA (residues 1-49), microviridin J precursor peptide (from UniProt B2G3C8 1-49)” registered a Kd in [1] of 112 nM.

Regarding “MdnC (ATP-grasp macrocyclase, microviridin J pathway, Microcystis aeruginosa MRC) (enzyme)”, the stoichiometry N in [2] came to 2.

As to MdnC (enzyme), the stoichiometry N in data set [3] and in [4] was 2 in each case.

In the case of microviridin J, the “Effect on Daphnia” value with Daphnia was “lethal molting disruption”.

B1: MdnA[1-35], leader peptide-only analog of MdnA (peptide)
peptide: MAYPNDQQGKALPFFARFLSVSKEESSIKSPSPDH
modifications: not fully specified
B1 showed a Kd in data set [1] of 146 nM.

B2: MdnA[1-35], leader peptide-only analog of MdnA (peptide)
peptide: MAYPNDQQGKALPFFARFLSVSKEESSIKSPSPDH
The molecule B2 yielded a Kd in data set [5] of 2800 ± 800 nM.

B3: Full-length MdnA (residues 1-49), microviridin J precursor peptide (peptide)
peptide: MAYPNDQQGKALPFFARFLSVSKEESSIKSPSPDHEISTRKYPSDWEEW
Turning to B3, the Kd in data set [5] was determined as 4800 ± 1000 nM.

B4: MdnAΔ2, dicyclic intermediate of MdnA (peptide)
peptide: MAYPNDQQGKALPFFARFLSVSKEESSIKSPSPDHEISTRKYPSDWEEW
modifications: two macrolactone rings, Thr39/Asp45 and Ser43/Glu47 (installed by MdnC)
B4 came in with a Kd in data set [5] of 6400 ± 2000 nM.

B5: MdnA[9-22], minimal peptide containing the conserved region of the leader peptide (peptide)
peptide: GKALPFFARFLSVS
modifications: not fully specified
For the molecule B5, in data set [1], the Kd amounted to 308 nM.

Turning to B6, in “SEC + native gel or EMSA”, the “stoichiometry N” value worked out at 2.
